From article PMC12616241

How the values were obtained:
[1] = target: FcγRIIIa on NK cells (human (endogenous in NK cells)) (UniProt P08637)
[2] = target: FcγRIIIa on NK cells (human (endogenous in NK cells)) (UniProt P08637); assay: flow cytometry on cells; purified human NK cells incubated on ice with titrated monomeric antibody (0.03–10 µg/mL), detected with anti-F(ab′)2-Alexa Fluor 647

FcγRIIIa on NK cells (human (endogenous in NK cells)), sequence (P08637 17-208): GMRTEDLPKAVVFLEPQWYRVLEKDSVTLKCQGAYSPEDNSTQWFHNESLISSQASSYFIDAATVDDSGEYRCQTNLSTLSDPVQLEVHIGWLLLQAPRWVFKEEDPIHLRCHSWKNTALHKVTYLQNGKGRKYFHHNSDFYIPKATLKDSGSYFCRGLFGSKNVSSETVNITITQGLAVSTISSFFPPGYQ

## anti-FRα IgG1-DE/GM (MOv18 variable regions, human IgG1 with S239D and I332E, glycomodified) (antibody)
[1]
  fold decrease in EC50 of NK cell-mediated ADCC (LDH release, 4 h, 10:1) against CAL51, compared with IgG1-GM and IgG1-DE: 100 fold
  fold decrease in EC50 of NK cell-mediated ADCC (LDH release, 4 h, 10:1) against CAL51, compared with IgG1-WT: 4000 fold
[2]
  fold greater KD than IgG1-WT (so in the source); stronger binding is meant: 100 fold
